In paper PMC3853416, “Structural and functional characterisation of the methionine adenosyltransferase from Thermococcus kodakarensis” (BMC Structural Biology, 2013):

How the values were obtained:
[1] = substrate: CSCC[C@H](N)C(=O)O; assay: HPLC (SCX column) detection of SAM formed; type: biochemical, Thermococcus kodakarensis; conditions: co-substrate ATP (10 mM in standard assay), 0.1 M Tris-HCl, 0.02 M MgCl2, 0.2 M KCl, pH 8.0, 37 °C
Description: (§1) HPLC (SCX column) detection of SAM formed on TkMAT

[2] = substrate: Nc1ncnc2c1ncn2[C@@H]1O[C@H](COP(=O)(O)OP(=O)(O)OP(=O)(O)O)[C@@H](O)[C@H]1O; assay: HPLC (SCX column) detection of SAM formed; type: biochemical, Thermococcus kodakarensis; conditions: co-substrate L-methionine (10 mM in standard assay), 0.1 M Tris-HCl, 0.02 M MgCl2, 0.2 M KCl, pH 8.0, 37 °C
Description: as §1

[3] = target: the molecule itself; assay: SEC; Superdex 200 prep grade, XK 16/70 column; 2 mL of 5 mg/mL protein; 40 mM Tris-HCl, 150 mM NaCl, pH 8.0; 1 mL/min; column calibrated with proteins of known size

B1: methionine adenosyltransferase from Thermococcus kodakarensis (enzyme, UniProt Q5JF22 1-405, looked up)
chain: MAGKVRNIVVEELVRTPVEMQKVELVERKGIGHPDSIADGIAEAVSRALSREYVKRYGIILHHNTDQVEVVGGRAYPQFGGGEVIKPIYILLSGRAVEMVDREFFPVHEIALKAAKDYLRKAVRHLDLEHHVIIDSRIGQGSVDLVGVFNKAKKNPIPLANDTSFGVGYAPLSETEKIVLETEKYLNSDEFKKKYPAVGEDIKVMGLRKGDEIDLTIAAAIVDSEVDNPDDYMAVKEAIYEAAKGIVESHTERPTNIYVNTADDPKEGIYYITVTGTSAEAGDDGSVGRGNRVNGLITPNRHMSMEAAAGKNPVSHVGKIYNILSMLIANDIAEQVEGVEEVYVRILSQIGKPIDEPLVASVQIIPKKGYSIDVLQKPAYEIADEWLANITKIQKMILEDKVNVF
notes: methionine adenosyltransferase (S-adenosylmethionine synthase) of Thermococcus kodakarensis, gene cloned from genomic DNA into pET28a(+); the printed gene length (1155 bp) and primers may not fit this gene; Homodimer in solution by size exclusion chromatography; No removal of the His-tag is described; also called TkMAT; MAT
[1]
  Km: 0.31 ± 0.07 mM
[2]
  Km: 6.54 ± 2.49 mM
[3]
  stoichiometry N: 2
